Results from publication PMC11937253.

Molecular target: MPXV E8L ectodomain, His-tagged recombinant protein (mpox virus (MPXV), isolate MPXV_USA_2022_MA001)
Assay: SPR; BiaCore T200; […]; 1:1 binding model

Row | Binder | Kd | koff | kon
1 | Nanobody E8L-01 (VHH) VHH: QVQLVESGGGLVQAGGSLRLSCAASGRIFINRVMGWYRQAPGKEREFVAGIAQGGSTNYADSVKGRFTISRDNAKNTVYLQMNSLKPEDTAVYYCAAKFWNWHHDHRGYDYWGQGTQVTVSS | 0.66 nM | 0.0029 s⁻¹ | 4.35e+06 M⁻¹ s⁻¹
2 | Nanobody E8L-04 (VHH) VHH: QVQLVESGGGLVQAGGSLRLSCAASGRIFGRRAMGWYRQAPGKEREFVAAISNGFNTNYADSVKGRFTISRDNAKNTVYLQMNSLKPEDTAVYYCAATVSRRGEQTFFYDYWGQGTQVTVSS | 1.77 nM | 0.0015 s⁻¹ | 876000 M⁻¹ s⁻¹
3 | Nanobody E8L-06 (VHH) VHH: QVQLVESGGGLVQAGGSLRLSCAASGFIFTSTRMGWYRQAPGKEREFVAGISIGGNTNYADSVKGRFTISRDNAKNTVYLQMNSLKPEDTAVYYCAARYYYFHNHNFAYDYWGQGTQVTVSS | 11.6 nM | 0.0105 s⁻¹ | 910000 M⁻¹ s⁻¹
4 | Nanobody E8L-08 (VHH) VHH: QVQLVESGGGLVQAGGSLRLSCAASGFIFTNWGMGWYRQAPGKERELVAAITSGSSTNYADSVKGRFTISRDNAKNTVYLQMNSLKPEDTAVYYCAAIRGFSLIYQFFAQYDYWGQGTQVTVSS | 3.11 nM | 0.002 s⁻¹ | 646000 M⁻¹ s⁻¹
5 | Nanobody E8L-03 (VHH) VHH: QVQLVESGGGLVQAGGSLRLSCAASGFIFTTRGMGWYRQAPGKEREFVACIFPGSSTNYADSVKGRFTISRDNAKNTVYLQMNSLKPEDTAVYYCAAEGPYRGFNFKKNLYDYWGQGTQVTVSS | 5.81 nM | 0.0034 s⁻¹ | 662000 M⁻¹ s⁻¹
6 | Nanobody E8L-05 (VHH) VHH: QVQLVESGGGLVQAGGSLRLSCAASGRIFDTVEMGWYRQAPGKEREFVASISGGDSTYYADSVKGRFTISRDNAKNTVYLQMNSLKPEDTAVYYCAARSARNRWSIIFYDYWGQGTQVTVSS | 2.39 nM | 0.002 s⁻¹ | 838000 M⁻¹ s⁻¹
7 | Nanobody E8L-02 (VHH) VHH: QVQLVESGGGLVQAGGSLRLSCAASGRIFTDSYMGWYRQAPGKEREFVACITTGSSTYYADSVKGRFTISRDNAKNTVYLQMNSLKPEDTAVYYCAARFRYTVQHWFHTKFDYWGQGTQVTVSS | 1.69 nM | 0.0003 s⁻¹ | 184000 M⁻¹ s⁻¹
8 | Nanobody E8L-07 (VHH) VHH: QVQLVESGGGLVQAGGSLRLSCAASGSIFKRYKMGWYRQAPGKEREFVACINKGGDTNYADSVKGRFTISRDNAKNTVYLQMNSLKPEDTAVYYCAVKRHAKAYGEFFYDYWGQGTQVTVSS | 3.17 nM | 0.0018 s⁻¹ | 539000 M⁻¹ s⁻¹

Molecular target: MPXV H3L ectodomain, His-tagged recombinant protein (mpox virus (MPXV), isolate MPXV_USA_2022_MA001)
Assay: SPR; BiaCore T200; […]; 1:1 binding model

Row | Binder | Kd | koff | kon
9 | Nanobody H3L-01 (VHH) VHH: QVQLVESGGGLVQAGGSLRLSCAASGRIFWWVPMGWYRQAPGKEREFVAGISKGDSTYYADSVKGRFTISRNNAKNTVYLQMNSLKPEDTAVYYCAANPRNNRFRAGVYDYWGQGTQVTVSS | 11.2 nM | 0.0209 s⁻¹ | 1.87e+06 M⁻¹ s⁻¹
10 | Nanobody H3L-02 (VHH) VHH: QVQLVESGGGLVQAGGSLRLSCAASGRIFLHRIMGWYRQAPGKERELVASISRGDNTYYADSVKGRFTISRDNAKNTVYLQMNSLKPEDTAVYYCAAGTGRHKDDHKDYDYWGQGTQVTVSS | 94.8 nM | 0.0725 s⁻¹ | 765000 M⁻¹ s⁻¹
11 | Nanobody H3L-03 (VHH) VHH: QVQLVESGGGLVQAGGSLRLSCAASGRIFFFAKMGWYRQAPGKEREFVASIVYGDITYYADSVKGRFTISRDNAKNTVYLQMNSLKPEDTAVYYCAAKPHWPSRRPRRYDYWGQGTQVTVSS | 35.2 nM | 0.0092 s⁻¹ | 261000 M⁻¹ s⁻¹

Molecular target: MPXV M1R ectodomain, His-tagged recombinant protein (mpox virus (MPXV), isolate MPXV_USA_2022_MA001)
Assay: SPR; BiaCore T200; […]; 1:1 binding model

Row | Binder | Kd | koff | kon
12 | Nanobody M1R-03 (VHH) VHH: QVQLVESGGGLVQAGGSLRLSCAASGSIFETGAMGWYRQAPGKEREFVAAITGWDTNYADSVKGRFTISRDNAKNTVYLQMNSLKPEDTAVYYCAASHWISFYWEHYHPYDYWGQGTQVTVSS | 24.9 nM | 0.0401 s⁻¹ | 1.61e+06 M⁻¹ s⁻¹
13 | Nanobody M1R-02 (VHH) VHH: QVQLVESGGGLVQAGGSLRLSCAASGFIFDHWEMGWYRQAPGKEREFVASISAGLSTNYADSVKGRFTISRDNAKNTVYLQMNSLKPEDTAVYYCAARHFTAVFWKNSYDYWGQGTQVTVSS | 23.5 nM | 0.0016 s⁻¹ | 68300 M⁻¹ s⁻¹
14 | Nanobody M1R-05 (VHH) VHH: QVQLVESGGGLVQAGGSLRLSCAASGFIFYAWHMGWYRQAPGKERELVASIAYGGDTNYADSVKGRFTISRDNAKNTVYLQMNSLKPEDTAVYYCAAVHFTHHKWDQEYDYWGQGTQVTVSS | 85.9 nM | 0.0037 s⁻¹ | 42800 M⁻¹ s⁻¹

Molecular target: MPXV B6R ectodomain, His-tagged recombinant protein (mpox virus (MPXV), isolate MPXV_USA_2022_MA001)
Assay: SPR; BiaCore T200; […]; 1:1 binding model

Row | Binder | Kd | koff | kon
15 | Nanobody B6R-05 (VHH) VHH: QVQLVESGGGLVQAGGSLRLSCAASGRIFHPGAMGWYRQAPGKEREFVAGISSGGNTYYADSVKGRFTISRDNAKNTVYLQMNSLKPEDTAVYYCAAPFRWVKATGRFLDYWGQGTQVTVSS | 95400 nM | 0.0008 s⁻¹ | 8.9 M⁻¹ s⁻¹
16 | Nanobody B6R-03 (VHH) VHH: QVQLVESGGGLVQAGGSLRLSCAASGRILHRKGMGWYRQAPGKEREFVAAINKGGSTNYADSVKGRFTISRDNAKNTVYLQMNSLKPEDTAVYYCAVGKKRRTWINRHYDYWGQGTQVTVSS | 3180 nM | 0.349 s⁻¹ | 110000 M⁻¹ s⁻¹
17 | Nanobody B6R-04 (VHH) VHH: QVQLVESGGGLVQAGGSLRLSCAASGRIFASDRMGWYRQAPGKEREFVAAISYGSRTNYADSVKGRFTISRDNAKNTVYLQMNSLKPEDTAVYYCAVWAFHRSWKERSHWHDYWGQGTQVTVSS | 1030 nM | 0.0412 s⁻¹ | 39900 M⁻¹ s⁻¹
18 | Nanobody B6R-02 (VHH) VHH: QVQLVESGGGLVQAGGSLRLSCAASGRIFRRNVMGWYRQAPGKEREFVAAITKGGYTNYADSVKGRFTISRDNAKNTVYLQMNSLKPEDTAVYYCAARYFHRKRHKWRHDYWGQGTQVTVSS | 14000 nM | 0.0029 s⁻¹ | 209 M⁻¹ s⁻¹
19 | Nanobody B6R-06 (VHH) VHH: QVQLVESGGGLVQAGGSLRLSCAASGRIFRKRNMGWYRQAPGKEREFVASISRGSNTYYADSVKGRFTISRDNAKNTVYLQMNSLKPEDTAVYYCAVWRHRTFVRWKHFDYWGQGTQVTVSS | 12.1 nM | 0.0056 s⁻¹ | 462000 M⁻¹ s⁻¹
